Experimental data as given in US20230203482A1, “Methods of Rescuing Stop Codons via Genetic Reassignment with ACE-tRNA” (THE WISTAR INSTITUTE OF ANATOMY AND BIOLOGY, priority 2017, published 2023).

B1: GluTAGchr1.trna123: ACE-tRNA Glu, TAG suppressor, SEQ ID NO: 40 (nucleic acid)
chain: CGTCTCCCTGGTGGTCTAGTGGCTAGGATTCGGCGCTCTAACCGCCGCGGCCCGGGTTCGATTCCCGGTCAGGGAA
modifications: expressed or natural sequence
B2: GluTAGchr1.trna106: ACE-tRNA Glu, TAG suppressor, SEQ ID NO: 41 (nucleic acid)
chain: CGTCTCCCTGGTGGTCTAGTGGTTAGGATTCGGCGCTCTAACCGCCGCGGCCCGGGTTCGATTCCCGGTCAGGGAA
modifications: expressed or natural sequence
B3: GluTAGchr13.trna2: ACE-tRNA Glu, TAG suppressor, SEQ ID NO: 38 (nucleic acid)
chain: CGTCTCCCACATGGTCTAGCGGTTAGGATTCCTGGTTCTAACCCAGGCGGCCCGGGTTCGACTCCCGGTGTGGGAA
modifications: expressed or natural sequence
B4: GluTAGchr2.trna18: ACE-tRNA Glu, TAG suppressor, SEQ ID NO: 39 (nucleic acid)
chain: CGTCTCCCATATGGTCTAGCGGTTAGGATTCCTGGTTCTAACCCAGGTGGCCCGGGTTCGACTCCCGGTATGGGAA
modifications: expressed or natural sequence

Each molecule was assayed on NLuc-UAG PTC (assay: NanoLuc nonsense reporter screen (all-in-one HTC plasmid), TAG/UAG PTC, HEK293 cells). Conditions: Table 5, Glu TAG.
Type: cell-based, human
Source text: In order to enable the identification of the nucleotide composition and functional ability to suppress nonsense codons by new types of tRNA, an All-In-One Plasmid With A One Pot Cloning Reaction was invented for High Throughput Cloning FIG. 11. This approach enables the facile investigation of ACE-tRNA activity via luciferase activity in a standard 96 well format. Briefly, synthetic nucleotide sequences encoding for tRNA are ligated into the NanoLuc Reporter plasmid, with an example of the TGA nonsense reporter plasmid variant shown in FIG. 11. […] and TAG (amber) stop codon rescue vectors have been successfully designed and implemented in FIGS. 16-19. The benefits are the approach is that DNA oligos encoding for tRNA libraries can be ligated in the NanoLuc reporter plasmid with the presence of the restriction enzyme and ligase with the reaction pushed to nearly 100% incorporation of tRNA insert (FIG. 11)-thus the ‘one-pot’ designation. The reaction is transformed into E. coli, with the resultant cDNA purified by standard methods. Another benefit of the invented method is that the tRNA and reporter gen are within the single expression cassette, therefore lowering biological variability and improving data quality obtaining in resulting screens of tRNA suppression activity. The purified cDNA plasmids are then screened in high-throughput 96 well format for their ability to repair nonsense codons by inferred luciferase activity. The approach is suitable for the high-throughput screening of hundreds to thousands of tRNA for novel therapeutic activity.
The rationale of this study is rooted in the observation that there are multiple tRNA genes with unique sequences (isodecoders) for a given cognate amino acid (isoacceptors), leading to >400 tRNAs annotated in the human genome (http:lowelab.ucsc.edu/GtRNAdb/)^28, 29. First, tRNA genes were examined to identify individual ACE-tRNAs that retain suppression efficacy of PTCs in mammalian cells. In order to maximize sequence coverage, an all-in-one cDNA plasmid was generated that supports both high-throughput cloning (HTC) of ACE-tRNAs and quantitative measurement of PTC suppression using luminescence following delivery to mammalian cells, FIG. 21B. ACE-tRNA sequences were cloned as DNA oligos into the HTC plasmid using Golden Gate cloning^30 paired with ccdB negative selection^31. This strategy produced ˜100% cloning efficiency. ACE-tRNA suppression efficiency was read out from a split NanoLuc luciferase (NLuc) NanoBiT platform whereby the PTC of interest (UGA, UAA, or UAG) was introduced in-frame at the junction between the large bit and small bit domains, FIG. 21B^32, using a 96-well format and normalized to background obtained in NLuc-PTC expressing cells. Twenty-one glycine ACE-tRNAs were first evaluated for suppression of the UGA PTC, FIG. 22, top left, column 1 (violet). […] Given the high sequence conservation among the Gly-tRNAs screened for anti-codon tolerance (FIG. 27), it would be difficult to predict de novo which tRNA would be most amenable to anticodon-editing.
The parent plasmid used was pcDNA3.1(+). The cDNA encoding pNLuc was Gibson Assembled (New England Biolabs, USA) into restriction sites HindIII and XhoI. A glycine (codon gga), tryptophan ([…]), amber (tag), opal (tga) and ochre (taa), were added to amino acid position 160 during cDNA per. The pcDNA3.1(+) polyA sequence was replaced for one with no BbsI restriction sites using per based Gibson Assembly. The high throughput ACE-tRNA Golden Gate cloning site was generated by first inserting the 5′ leader sequence of the human tRNA^Tyr gene (bold) with a T7 promoter sequence upstream (italics)
tRNA gene sequences were obtained from the tRNA database tRNAscan-SE (http://gtrnadb.ucsc.edu/index.html; PMID: 26673694). […]

Q: How did the Ranking turn out when B1 was run?
A: Its Ranking is “#3”.

Q: How did the Ranking turn out when B2 was run?
A: The Ranking was “#4”.

Q: For B3, which Ranking is on record?
A: Its Ranking is “#1”.

Q: Which Ranking does the source give for B4 here?
A: Its Ranking is “#2”.
